The numbers were not newly measured in publication PMC4134939, which cites them from elsewhere.

This data set deals with ubiquitin (Homo sapiens) (UniProt P0CG47).

Sequence of DNA polymerase iota UBM1 (Q9UNA4 513-557): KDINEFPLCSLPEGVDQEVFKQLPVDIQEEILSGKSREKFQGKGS

In general, Kd refers to the constant that tells how readily two partners part at equilibrium. As to “DNA polymerase iota UBM1 (from UniProt Q9UNA4)”, the Kd is 130 µM.
